Experimental data from US20160068605A1.
Like-named read-outs stand apart in the source and are kept apart here.

Experiments:
[1] = biological target: IL3RA-PK (CD123 tagged with ProLink) in HEK293 IL3RA-PK/CSF2RB-EA cells (UniProt P26951)
[2] = biological target: IL3RA-PK (CD123 tagged with ProLink) in HEK293 IL3RA-PK/CSF2RB-EA cells (UniProt P26951); remark: listed apart in the source
[3] = biological target: cell-surface CD3 epsilon on primary cynomolgus T cells (cynomolgus monkey) (UniProt Q95LI5); test: saturation binding by flow cytometry on cynomolgus monkey T cells
[4] = biological target: cell-surface CD3 epsilon on primary human T cells (human) (UniProt P07766); test: saturation binding by flow cytometry on primary human T cells (Donor 10006)
Sequence of cell-surface CD3 epsilon on primary human T cells (human) (P07766 23-207): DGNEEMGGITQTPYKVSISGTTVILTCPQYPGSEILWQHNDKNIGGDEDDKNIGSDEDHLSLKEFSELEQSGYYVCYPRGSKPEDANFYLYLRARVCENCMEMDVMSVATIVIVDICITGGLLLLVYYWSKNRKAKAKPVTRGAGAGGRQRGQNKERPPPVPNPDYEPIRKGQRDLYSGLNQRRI

Sequence of cell-surface CD3 epsilon on primary cynomolgus T cells (cynomolgus monkey) (Q95LI5 22-198): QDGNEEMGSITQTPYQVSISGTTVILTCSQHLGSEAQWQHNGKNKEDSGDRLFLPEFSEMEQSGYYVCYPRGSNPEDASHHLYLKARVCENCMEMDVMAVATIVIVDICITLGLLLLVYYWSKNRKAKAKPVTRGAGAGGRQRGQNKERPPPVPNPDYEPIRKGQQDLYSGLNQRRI

EC50 (read off the curve): CD123/CD131 heteromerization (RLU) [1] [ng/mL] | EC50 (read off the curve): CD123/CD131 heteromerization (RLU) [2] [ng/mL] | Antigen binding sites/cell [3] [sites/cell] | Kd [3] [nM] | Ab binding sites/cell [4] [sites/cell] | Kd [4] [nM] | Substance
3 | 6 |  |  |  |  | IL-3 (from UniProt P08700) (ligand)
 |  | 55000 | 1.4 | 60000 | 4.2 | SP34-2 (antibody)
